US20250163127A1

Columns and labels:
[1] = molecular target: human PD-1 (human) (UniProt Q15116)
[2] = molecular target: CD28 (human) (UniProt P10747); test: flow cytometry, transfected cells
[3] = molecular target: CTLA-4 (Homo sapiens (Human)) (UniProt P16410); test: flow cytometry, transfected cells
[4] = substrate: ICOS (Homo sapiens (Human)) (UniProt Q9Y6W8); test: flow cytometry, transfected cells
ICOS (Homo sapiens (Human)), sequence (Q9Y6W8 21-199 limits assumed): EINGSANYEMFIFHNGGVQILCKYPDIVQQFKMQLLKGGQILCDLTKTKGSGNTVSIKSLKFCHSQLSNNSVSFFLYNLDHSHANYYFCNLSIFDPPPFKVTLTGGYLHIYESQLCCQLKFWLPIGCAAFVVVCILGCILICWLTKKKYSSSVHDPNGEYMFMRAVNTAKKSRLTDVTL

CTLA-4 (Homo sapiens (Human)), sequence (P16410 36-223): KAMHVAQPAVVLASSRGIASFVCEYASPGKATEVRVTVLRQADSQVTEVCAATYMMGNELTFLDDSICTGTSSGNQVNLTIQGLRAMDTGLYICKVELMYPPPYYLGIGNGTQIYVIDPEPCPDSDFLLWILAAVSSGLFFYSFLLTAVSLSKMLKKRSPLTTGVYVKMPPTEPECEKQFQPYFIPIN
human PD-1 (human), sequence (Q15116 25-288): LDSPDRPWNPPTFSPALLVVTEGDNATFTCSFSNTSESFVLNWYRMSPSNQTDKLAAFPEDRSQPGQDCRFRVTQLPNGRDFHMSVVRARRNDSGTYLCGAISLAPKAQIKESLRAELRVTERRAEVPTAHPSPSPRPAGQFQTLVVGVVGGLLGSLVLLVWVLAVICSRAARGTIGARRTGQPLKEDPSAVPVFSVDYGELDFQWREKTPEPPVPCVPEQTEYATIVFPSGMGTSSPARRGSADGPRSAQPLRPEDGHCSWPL

| Binder | IFN gamma levels pg/mL (MLR) [1] [pg/mL] | MFI [2] [MFI] | MFI parental ratio [2] [fold] | MFI [3] [MFI] | MFI parental ratio [3] [fold] | MFI [4] [MFI] | MFI parental ratio [4] [fold] | MFI ratio to WT (ΔWT) [2] [fold] | MFI ratio to WT (ΔWT) [3] [fold] | MFI ratio to WT (ΔWT) [4] [fold] |
| --- | --- | --- | --- | --- | --- | --- | --- | --- | --- | --- |
| variant PD-L2 IgV H15Q/N18D/T47A/Q72H/V73A/R76G/I86T/V89D Fc fusion (Fc fusion) LFTVTVPKELYIIEQGSDVTLECNFDTGSHVNLGAITASLQKVENDASPHRERATLLEEQLPLGKASFHIPHAQVGDEGQYQCIITYGDAWDYKYLTLKVKA | 1070 |  |  |  |  |  |  |  |  |  |
| variant PD-L2 IgV H15Q/L33H/S67L/R76G/Q82R/V89D Fc fusion (Fc fusion) LFTVTVPKELYIIEQGSNVTLECNFDTGSHVNHGAITASLQKVENDTSPHRERATLLEEQLPLGKALFHIPQVQVGDEGQYRCIIIYGDAWDYKYLTLKVKA | 1500 |  |  |  |  |  |  |  |  |  |
| ICOSL ECD-Fc N84Q/N119Q/N207Q (Fc fusion) DTQEKEVRAMVGSDVELSCACPEGSRFDLNDVYVYWQTSESKTVVTYHIPQNSSLENVDSRYRNRALMSPAGMLRGDFSLRLFQVTPQDEQKFHCLVLSQSLGFQEVLSVEVTLHVAAQFSVPVVSAPHSPSQDELTFTCTSINGYPRPNVYWINKTDNSLLDQALQNDTVFLNMRGLYDVVSVLRIARTPSVNIGCCIENVLLQQQLTVGSQTGNDIGERDKITENPVSTGEKNAAT |  | 569 | 0.38 | 640 | 0.17 | 21400 | 0.58 |  |  |  |
| ICOSL-Fc N52A/N57Y/Q100A (Fc fusion) DTQEKEVRAMVGSDVELSCACPEGSRFDLNDVYVYWQTSESKTVVTYHIPQASSLEYVDSRYRNRALMSPAGMLRGDFSLRLFNVTPQDEQKFHCLVLSASLGFQEVLSVEVTLHVAANFSVPVVSAPHSPSQDELTFTCTSINGYPRPNVYWINKTDNSLLDQALQNDTVFLNMRGLYDVVSVLRIARTPSVNIGCCIENVLLQQNLTVGSQTGNDIGERDKITENPVSTGEKNAAT |  | 147000 |  | 320000 |  | 261000 |  | 6.6 | 0.97 | 1.23 |
| ICOSL-Fc N52A/N57F/Q100S (Fc fusion) DTQEKEVRAMVGSDVELSCACPEGSRFDLNDVYVYWQTSESKTVVTYHIPQASSLEFVDSRYRNRALMSPAGMLRGDFSLRLFNVTPQDEQKFHCLVLSSSLGFQEVLSVEVTLHVAANFSVPVVSAPHSPSQDELTFTCTSINGYPRPNVYWINKTDNSLLDQALQNDTVFLNMRGLYDVVSVLRIARTPSVNIGCCIENVLLQQNLTVGSQTGNDIGERDKITENPVSTGEKNAAT |  | 157000 |  | 255000 |  | 242000 |  | 7 | 0.77 | 1.14 |
| ICOSL-Fc N52R/N57L/Q100A (Fc fusion) DTQEKEVRAMVGSDVELSCACPEGSRFDLNDVYVYWQTSESKTVVTYHIPQRSSLELVDSRYRNRALMSPAGMLRGDFSLRLFNVTPQDEQKFHCLVLSASLGFQEVLSVEVTLHVAANFSVPVVSAPHSPSQDELTFTCTSINGYPRPNVYWINKTDNSLLDQALQNDTVFLNMRGLYDVVSVLRIARTPSVNIGCCIENVLLQQNLTVGSQTGNDIGERDKITENPVSTGEKNAAT |  | 119000 |  | 403000 |  | 308000 |  | 5.3 | 1.22 | 1.45 |
| ICOSL-Fc N52M/N57H/Q100S (Fc fusion) DTQEKEVRAMVGSDVELSCACPEGSRFDLNDVYVYWQTSESKTVVTYHIPQMSSLEHVDSRYRNRALMSPAGMLRGDFSLRLFNVTPQDEQKFHCLVLSSSLGFQEVLSVEVTLHVAANFSVPVVSAPHSPSQDELTFTCTSINGYPRPNVYWINKTDNSLLDQALQNDTVFLNMRGLYDVVSVLRIARTPSVNIGCCIENVLLQQNLTVGSQTGNDIGERDKITENPVSTGEKNAAT |  | 115000 |  | 463000 |  | 266000 |  | 5.1 | 1.4 | 1.25 |
| ICOSL-Fc N52M/N57W/Q100P (Fc fusion) DTQEKEVRAMVGSDVELSCACPEGSRFDLNDVYVYWQTSESKTVVTYHIPQMSSLEWVDSRYRNRALMSPAGMLRGDFSLRLFNVTPQDEQKFHCLVLSPSLGFQEVLSVEVTLHVAANFSVPVVSAPHSPSQDELTFTCTSINGYPRPNVYWINKTDNSLLDQALQNDTVFLNMRGLYDVVSVLRIARTPSVNIGCCIENVLLQQNLTVGSQTGNDIGERDKITENPVSTGEKNAAT |  | 168000 |  | 343000 |  | 322000 |  | 7.5 | 1.04 | 1.52 |
| ICOSL ECD-Fc N52Q/N84Q/N119Q/N168Q (Fc fusion) DTQEKEVRAMVGSDVELSCACPEGSRFDLNDVYVYWQTSESKTVVTYHIPQQSSLENVDSRYRNRALMSPAGMLRGDFSLRLFQVTPQDEQKFHCLVLSQSLGFQEVLSVEVTLHVAAQFSVPVVSAPHSPSQDELTFTCTSINGYPRPNVYWINKTDNSLLDQALQQDTVFLNMRGLYDVVSVLRIARTPSVNIGCCIENVLLQQNLTVGSQTGNDIGERDKITENPVSTGEKNAAT |  |  |  | 3300 |  |  |  |  |  |  |
| ICOSL-Fc N52A/N57H/Q100S (Fc fusion) DTQEKEVRAMVGSDVELSCACPEGSRFDLNDVYVYWQTSESKTVVTYHIPQASSLEHVDSRYRNRALMSPAGMLRGDFSLRLFNVTPQDEQKFHCLVLSSSLGFQEVLSVEVTLHVAANFSVPVVSAPHSPSQDELTFTCTSINGYPRPNVYWINKTDNSLLDQALQNDTVFLNMRGLYDVVSVLRIARTPSVNIGCCIENVLLQQNLTVGSQTGNDIGERDKITENPVSTGEKNAAT |  | 159000 |  | 321000 |  | 305000 |  | 7.1 | 0.97 | 1.44 |
| ICOSL-Fc N52R/N57Y/Q100S (Fc fusion) DTQEKEVRAMVGSDVELSCACPEGSRFDLNDVYVYWQTSESKTVVTYHIPQRSSLEYVDSRYRNRALMSPAGMLRGDFSLRLFNVTPQDEQKFHCLVLSSSLGFQEVLSVEVTLHVAANFSVPVVSAPHSPSQDELTFTCTSINGYPRPNVYWINKTDNSLLDQALQNDTVFLNMRGLYDVVSVLRIARTPSVNIGCCIENVLLQQNLTVGSQTGNDIGERDKITENPVSTGEKNAAT |  | 133000 |  | 504000 |  | 229000 |  | 6 | 1.53 | 1.08 |
| ICOSL-Fc N52S/N57H/Q100E (Fc fusion) DTQEKEVRAMVGSDVELSCACPEGSRFDLNDVYVYWQTSESKTVVTYHIPQSSSLEHVDSRYRNRALMSPAGMLRGDFSLRLFNVTPQDEQKFHCLVLSESLGFQEVLSVEVTLHVAANFSVPVVSAPHSPSQDELTFTCTSINGYPRPNVYWINKTDNSLLDQALQNDTVFLNMRGLYDVVSVLRIARTPSVNIGCCIENVLLQQNLTVGSQTGNDIGERDKITENPVSTGEKNAAT |  | 117000 |  | 302000 |  | 258000 |  | 5.2 | 0.92 | 1.22 |
| ICOSL-Fc N52Q/N57F (Fc fusion) DTQEKEVRAMVGSDVELSCACPEGSRFDLNDVYVYWQTSESKTVVTYHIPQQSSLEFVDSRYRNRALMSPAGMLRGDFSLRLFNVTPQDEQKFHCLVLSQSLGFQEVLSVEVTLHVAANFSVPVVSAPHSPSQDELTFTCTSINGYPRPNVYWINKTDNSLLDQALQNDTVFLNMRGLYDVVSVLRIARTPSVNIGCCIENVLLQQNLTVGSQTGNDIGERDKITENPVSTGEKNAAT |  | 131000 |  | 367000 |  | 192000 |  | 5.9 | 1.11 | 0.91 |
| ICOSL-Fc N52Q/N57S/Q100A (Fc fusion) DTQEKEVRAMVGSDVELSCACPEGSRFDLNDVYVYWQTSESKTVVTYHIPQQSSLESVDSRYRNRALMSPAGMLRGDFSLRLFNVTPQDEQKFHCLVLSASLGFQEVLSVEVTLHVAANFSVPVVSAPHSPSQDELTFTCTSINGYPRPNVYWINKTDNSLLDQALQNDTVFLNMRGLYDVVSVLRIARTPSVNIGCCIENVLLQQNLTVGSQTGNDIGERDKITENPVSTGEKNAAT |  | 91300 |  | 315000 |  | 263000 |  | 4.1 | 0.95 | 1.24 |

More lines, now with the values ahead:

| IFN gamma levels pg/mL (MLR) [1] [pg/mL] | MFI [2] [MFI] | MFI parental ratio [2] [fold] | MFI [3] [MFI] | MFI parental ratio [3] [fold] | MFI [4] [MFI] | MFI parental ratio [4] [fold] | MFI ratio to WT (ΔWT) [2] [fold] | MFI ratio to WT (ΔWT) [3] [fold] | MFI ratio to WT (ΔWT) [4] [fold] | Binder |
| --- | --- | --- | --- | --- | --- | --- | --- | --- | --- | --- |
| 1470 |  |  |  |  |  |  |  |  |  | variant PD-L2 IgV I13V/H15Q/L33F/T47A/Q82R/V89D Fc fusion (Fc fusion) LFTVTVPKELYIVEQGSNVTLECNFDTGSHVNFGAITASLQKVENDASPHRERATLLEEQLPLGKASFHIPQVQVRDEGQYRCIIIYGDAWDYKYLTLKVKA |
| 1090 |  |  |  |  |  |  |  |  |  | variant PD-L2 IgV I13V/H15Q/T47A/Q72H/R76G/I86T Fc fusion (Fc fusion) LFTVTVPKELYIVEQGSNVTLECNFDTGSHVNLGAITASLQKVENDASPHRERATLLEEQLPLGKASFHIPHVQVGDEGQYQCIITYGVAWDYKYLTLKVKA |
| 836 |  |  |  |  |  |  |  |  |  | variant PD-L2 IgV I13V/H15Q/T47A/E58G/S67L/Q82R/V89D Fc fusion (Fc fusion) LFTVTVPKELYIVEQGSNVTLECNFDTGSHVNLGAITASLQKVENDASPHRERATLLGEQLPLGKALFHIPQVQVRDEGQYRCIIIYGDAWDYKYLTLKVKA |
| 1560 |  |  |  |  |  |  |  |  |  | variant PD-L2 IgV I13V/H15Q/T47A/S67L/Q72H/R76G/Q82R/V89D Fc fusion (Fc fusion) LFTVTVPKELYIVEQGSNVTLECNFDTGSHVNLGAITASLQKVENDASPHRERATLLEEQLPLGKALFHIPHVQVGDEGQYRCIIIYGDAWDYKYLTLKVKA |
| 941 |  |  |  |  |  |  |  |  |  | variant PD-L2 IgV H15Q/S39I/E44D/Q72H/V75G/R76G/Q82R/V89D Fc fusion (Fc fusion) LFTVTVPKELYIIEQGSNVTLECNFDTGSHVNLGAITAILQKVDNDTSPHRERATLLEEQLPLGKASFHIPHVQGGDEGQYRCIIIYGDAWDYKYLTLKVKA |
| 1270 |  |  |  |  |  |  |  |  |  | variant PD-L2 IgV I13V/H15Q/E44V/T47A/Q82R/V89D Fc fusion (Fc fusion) LFTVTVPKELYIVEQGSNVTLECNFDTGSHVNLGAITASLQKVVNDASPHRERATLLEEQLPLGKASFHIPQVQVRDEGQYRCIIIYGDAWDYKYLTLKVKA |
| 1100 |  |  |  |  |  |  |  |  |  | variant PD-L2 IgV H15Q/T47A/S67L/R76G/Q82R/V89D Fc fusion (Fc fusion) LFTVTVPKELYIIEQGSNVTLECNFDTGSHVNLGAITASLQKVENDASPHRERATLLEEQLPLGKALFHIPQVQVGDEGQYRCIIIYGDAWDYKYLTLKVKA |
